Experiment: soluble on expression in E. coli; label from the status in PepcDB or PDB records
In the case of “MSLGGTMVFRPVDVPGGAVFADQKITLGGGSPDRAFIENAHPDYLSGSFAEKNAWRYYIAKYELTAAQYAAIAGPCPDASKMDLWLPKVGITPGEATVAAESYSAWLFANARKSLPGDGKAPGFVRLPTEAEWEYAARGGAKVGPSDFDARHPPMDGPESGAIWYDGPESADKELQLVGLLAANPLGLHDMLGNAAELVQDLFRLNRVGRPHGRAGAFVKRGGDYRTPLAEIHSGLRQEFDLFDAKGLRREATTGTRFVLAAAALPSRDRLEALRQGWTALTEQSHSPLAEQQSDPRAELKTLSEFTSQLDFPEKAEVKRRLLNLAGVIDANIASRNEERDRAAREMLRVAVFAAGQLPTALDNAERCGKLMALNAAQYKERCDRVQADSKFDSQYYLDHVTRMLAEFPVPILEGQLGTLGSDLHAQGMLDAEGRVDHVFSDLKTLQAKGATAHKGILGGWKGREGHHHHHH”, the “soluble on expression in E. coli” value is reported as “not soluble”. For “MGSDKIHHHHHHMEENIWWRGKDYIEEDEDIKKWNSAKFKWIPKEINKISLQPFSLNFIVGPRQVGKTTLIKLLIKKLLESNHNPLSIFYCSCDLVSDYEELLKRTRDYLKIRKQEGIKSSFIFLDEVTFVKEWYRAVKHLIDTGELTSDVVTVSGSSSLTILKQKESFPGRRGNGTDVILYPLSFSGYINVINPKIEVRPGWYSEIEELFESYLKVGGLPPSINGLSPLKTYTEWIIYEINRVGRDEMLAKQILSAVLSTTPSKVSYNSIAKEIGVNHRTVAEYIKLFNDMFLTLTLHFIDVNTGYYNYRKQIKIHFVDPLFYDVMSTWTGVKRPDDPIIVEGIVASHLSRIYSIGYTEVGKEEIDVVTLPEVIGYEVKYRERTKQVKVIAGKMKKVITLSKHGENDTFPVHLFLAELNI”, the “soluble on expression in E. coli” value was “not soluble”. With “MAHHHHHHMSELKIGFLGCGSMGECIMAGLLKAKALGPENTFICNRSASTNERLVSLYQVKSVSAVELAEKSDIIMLGVKPYGIVPVLETIKEKITPSKLVVSMAAGVPIATIENHCPPKTKVVRVMPNIPSYVGEGVTSISGNSAVTPDDEAVVMKLFSAIGKSYLVAESAIHGVVGVAGSSPAYVFMFMEALSDGAVRGGIPRAQSYEMAAQAVLGAAKMLQDSGKTPSALKDMVCSPGGTTIEAVRFLEKGGMRSSIIEAMIQCMEKSKEFERMYSE” the “soluble on expression in E. coli” value was “soluble”. In the case of “MAIVSFKHKGLKLFYTTGSTKAIRPDHVKKLRVILTALTSATCPEMLKAPAFKMHPLKGELTGYYSIWVNGNWRVTFRFIGTDVELVDYQDYH”, the “soluble on expression in E. coli” value is reported as “not soluble”. In the case of “MKKRKPMDYKTRIIYALLKSRLKTIDTYASRAEEIQDRQLRRILSSAAYTSTGIRYGFNRISSKECFARNVPVRDYESTQAEIERMLRGEKDVLCPGRCTWFAKSSGTTNSKSKFIPVPYRHLHYCHYQGGKDSLSLYLRNRPDSRFFTTKGLVLGGSHAPVSMNADIQVGDLSAILVENMPVLGNCMRVPSKETLLMDEWTEKLKAVVREVAHVRVGSLSGVPSWILVLIKDVLAATGRETLSDVWPELEVFFHGGISFAPYRAQYEKLIPSSRMQYMETYNASEGFFGIQDDPKDSGMLLMLDYGVYYEFIPMEHFGRPEAEAIPLEGVEKGRNYAMIISTLGGLYRYVLGDTVRFTSVKPYKIVITGRTKHYINAFGEELMVDNSDKALAATCKRFGVQAVDYTVAPHFFSEEGKGRHDWLIEFVSAPADPNAFAKALDAELQTLNSDYEAKRYADMTLLPLSLTIARSGLFHDWLTEQGKLGGQHKVPRLSNTPEIMRSILEMNSAAALEHHHHHH”, the “soluble on expression in E. coli” value is reported as “not soluble”. With “MSLHASAIESIETIIVDLPTIRPHKLAMHTMQNQTLVLIRLRCADGIEGLGESTTIGGLAYGNESPDSIKTNIDRFVAPLLIGQDASNINAAMLRLEQSIRGNTFAKSGIESALLDAQGKRLGLPVSELLGGRVRDALPVAWTLASGDTAKDIAEAQKMLDLRRHRIFKLKIGAGEVDRDLAHVIAIKKALGDSASVRVDVNQAWDEAVALRACRILGGNGIDLIEQPISRNNRAGMVRLNASSPAPIMADESIECVEDAFNLAREGAASVFALKIAKNGGPRATLRTAAIAEAAGIGLYGGTMLEGGIGTLASAHAFLTLNKLSWDTELFGPLLLTEDILAEPPVYRDFHLHVSKAPGLGLSLDEERLAFFRRDKTTPVLHHTEGHHHHHH” the “soluble on expression in E. coli” value was “soluble”. With “SAQKVEAKGGKGGNQWDDGSDHDAVTKIQVAVGGMGIQYIQFDYVKNGQTEQTPLRGIKGSTIPTDPFVINHPEEHLVSIEIWYKPDGLIQGLRFISNKKTSRFIGYDRGTRSFLQVQDKKIIGFHGSAGDNLNSLGAYFAPLTIPLTPAKPLPALGSDDGTAWDDGAYVGVKKVYVGQAQDGISAVKFVYDKSPEEVTGEEHGKSTLLGFEEFVLDYPSEYIIAVEGTYDKIFGSDGSVITMLRFKTNKQTSPPFGLEAGTAFELKEEGHKIVGFHGRADALLHKIGVHVRPVSN” the “soluble on expression in E. coli” value was “soluble”. For “MAVRIRLAKFGRKHHPIYRIVVMDAKSPREGKYIDILGTYDPKRKVLINVYPEKVKEWVLKGVELSHRAKAILWNHGILKEVVPEGYEMKRVGDYYVFEKRESKKSKGGEAA”, the “soluble on expression in E. coli” value was “soluble”. In the case of “MNVFNPAQFRAQFPALQDAGVYLDSAATALKPEAVVEATQQFYSLSAGNVHRSQFAEAQRLTARYEAAREKVAQLLNAPDDKTIVWTRGTTESINMVAQCYARPRLQPGDEIIVSVAEHHANLVPWLMVAQQTGAKVVKLPLNAQRLPDVDLLPELITPRSRILALGQMSNVTGGCPDLARAITFAHSAGMVVMVDGAQGAVHFPADVQQLDIDFYAFSGHKLYGPTGIGVLYGKSELLEAMSPWLGGGKMVHEVSFDGFTTQSAPWKLEAGTPNVAGVIGLSAALEWLADYDINQAESWSRSLATLAEDALAKRPGFRSFRCQDSSLLAFDFAGVHHSDMVTLLAEYGIALRAGQHCAQPLLAELGVTGTLRASFAPYNTKSDVDALVNAVDRALELLVD”, the “soluble on expression in E. coli” value is reported as “soluble”. In the case of “MLLQANRGLGLSAHIIDHCNLILKFPEGTNSTWYNAQFKVFEALEFKYNVCEAVLLWEQYRNMTTVLTREYLDVRPDGWLDYAAMRIAQLGADKCYNRTLCEEHLNVILPAKPPFHPRQFHKCAVVGNSGDLLKTEFGEEIDSHDAVFRDNEAPVNEKYAKYVGVKRDFRLVVRGAARNMIKILNGSDNEVLIIKSVTHRDFNEMIKRIPNPVYLFQGIVLRRGAKGTGMKSIELALSMCDIVDIYGFTVDPGYTEWTRYFSTPRKGHNPLQGRAYYQLLECLGVQITC”, the “soluble on expression in E. coli” value is reported as “not soluble”. For “MVEINLRELKKYANPFFLTIRKDKILVNNKRMARLSRTKMDKIEEEFGIPVIYSKTYEYVSTKVGRFINKHKIIAPRDIVIVGLSGGKDSLLLLHLLEVYRRKYGIKLIAVTVDVNIGGIRPWKEDTEGVKLIKHHCEMLNVPHIILKNDLDVVELSEILTKHSKGMEFSPCFSCSVIKRHLLGKLAKEIAENENIPYEKVKLAYGHNLDDNSDTILANIFKGERLKFMRPLTRFKYNEVDYQSFKIPLEECIIIRPMLPILERDIIKALEECGIEYYKDKDMCPYSRDRGDSVRRRCHEILEKLEEEIPNIREMVVSSALKTVEYYSKNPYGEDNL”, the “soluble on expression in E. coli” value was “soluble”. With “MIVPYSVEDILKDGCFLERAEIDRLLDRLRTKKNLILQGPPGTGKTWLAKRLAFALMGQKDDSKVRAVQFHPNLSYEDFVRGWRPTGEGKLSLADGVFMEAIKAASKDPSSKFVVVIEEINRGNPAQIFGELLTLLEAGKRTPNEALELCYPDADGKRRPVHIPENLYVVGTMNIADRSLALVDLALRRRFAFVGLEPRLGQVWRDWVVKECAVDPLEHHHHHH” the “soluble on expression in E. coli” value was “not soluble”. With “MAKRVVSVSLGSSRRDAAAEVELLGERVLLERRGTDGDFQRALCLIQELDGKVDAIGLGGIDLYLFAGGRRYAIRDALRLKEAAKKTPVVDGSGLKHTLERRAVRELASLIDWRKTKVLLPSAVDRFGLAEALDEAGARVLYGDFIFALGLPIPLYSLSFLQKLAFLLLPLFTRLPFSVLYPTGKKQEEVREDWRARYYAWADVVAGDWHYVRRHMPKDMRGKTVITNTTTEEDVAFLRERGVRRLVTTTPRLGGRSFGTNVMEAMLVALAGRELGEADYLRYIDQIGLKPQVLELKGQA” the “soluble on expression in E. coli” value was “soluble”. In the case of “SLGMIKNSLFGSVETWPWQVLSKGDKEEVAYEERACEGGKFATVEVTDKPVDEALREAMPKVAKYAGGTNDKGIGMGMTVPISFAVFPNEDGSLQKKLKVWFRIPNQFQSDPPAPSDKSVKIEEREGITVYSMQFGGYAKEADYVAQATRLRAALEGTATYRGDIYFCTGYDPPMKPYGRRNEIWLLKT”, the “soluble on expression in E. coli” value is reported as “soluble”. In the case of “MLTDLSIRNLAIIDSLHVSFDRGLTVLTGETGAGKSIIIDAVNLIMGGRASAELVRTGEEEATVEALFSLPTDAPLGQRLAAMGLDCDGELLVKRVVSRSGRNRVFIGGGLSTLAMLSDISRELVNIYGQHESQTLLRPENHLRLLDGFAGLDSLRADYAAIFDRYRETEARLRELDEGEREAARRLDLLSFQVEEIHAAALAPGEEEALAGERELLVNAERLSRGSEEAYEALYGDESSVLHLLARVKGRVAEISGVDASLAPLLDVVESAAAQLEDAALTLRGYGARIEADPARLEAVDERLDLIRRLKKKYAPTVEEIIAYGEEAAREMELLLNRDRTRSDLDRELETLAGRVRETGHGLSAKRHEAAKRLKAAMEREIHELAMKHALFDVAFEELPEPRQTGLDSVTFLFSPNPGEEPKPLARIASGGELSRLMLALKQVHPESDVPTLIFDEVDTGIGGATSALVGEKLKRVSRAQQVLCITHHPQVAAFADRHYKVEKRVEGGRTATAVTPLEGEDRVAEMARMLGGVTITGTTLDHAREMIEGARRAAVGG”, the “soluble on expression in E. coli” value is reported as “not soluble”. In the case of “MGSDKIHHHHHHMKKMLKPFYNWLRLKLQFLEEAYYFWLLLCRHNASVNTEASMKKMQYILLREAHVIEKGMSMRNPRKGFGQAKILIMLQNLNRYYDLYSTEDLDFLKFPISTVGSYIQYTNEMGIDITKIEQQYLNLVSRTGFQNLNRHSGIESIAKSDILKECNKTFESLLYSRHSIRYFDNKIPSKEMLEKALKLASRTPSACNRQGWLTHIFIGEKSYSLLQWQGGSNGFEKEIHCSILVTANLNAFLSYEVHQAYVDGGLYAMNLLNALHSLGLGTIPLSCGFGYSKLRMLKKQFYIPENEVPIMIIGVGELLDHFNVAISMRRDVSTTNTYHY”, the “soluble on expression in E. coli” value is reported as “not soluble”. In the case of “MGSDKIHHHHHHMAENNTPQETEQDQEARFREEFEVGGKDRQLSEEEQLEQLGSYIDAHYPVPDFTPPWAGGAGDPDPADRYIAHLPDRTTHTAMIMLGSGLDHSMPGVAFIGGVSVDDVPEVGGAIFHPSNPTGRWAVSFHSGGWWRGSGDALEFQWRPEVAAAAELSGTTILDLDYPLAPGHNLHDMNEVVGKAVGYARHHNPVSITGWGYSSGAALAAINASLFDALVLTFPDLGSVEKLPAEIRGDAVVPAAAAWPTTFVQIAAQDEIAERPGELGDATVKEYVSRHRISTPKVAREKITDVAEFLKTVC”, the “soluble on expression in E. coli” value is reported as “not soluble”. With “MNGVEGNNELSLANTTTPSHASEDLDLKQDQGLQEETDTVREMEAAGEAGADGGASPDSEHCGPELCFRVAENSCAAAARGLEDAPSPSKGGDAPSAPVAADDSSKNGCQLEGPHSPAKPKALEACGAVGLGSQQMPGPKKTKEMTTTKCAISVATGKEGEAGAAMQEKKGLQKEKKVAGGGKEETRPRAPKINCMDSLEAIDQELSNVNAQADRAFLQLERKFGRMRRLHMQRRSFIIQNIPGFWVTAFRNHPQLSPMISGQDEDMMRYMINLEVEELKQPRVGCKFKFIFQSNPYFRNEGLVKEYERRSSGRVVSLSTPIRWHRGQEPQAHIHRNREGNTIPSFFNWFSDHSLLEFDRIAEIIKGELWSNPLQYYLMGDGPRRGVRVPPRQPVESPRSFRFQSG” the “soluble on expression in E. coli” value was “soluble”. In the case of “SEAKTLGTVTPRKPVLSVSARKIKDNAADWHNLILKWETLNDAGFTTANNIANLKISLLNKDKIELDSSSPASKENEEKVCLEYNEELEKLCEELQATLDGLTKIQVKMEKLSSTTKGICELENYHYGEESKRPPLFHTWPTTHFYEVSHKLLEMYRKELLLKRTVAKELAHTGDPDLTLSYLSMWLHQPYVESDSRLHLESMLLETGHRAL”, the “soluble on expression in E. coli” value is reported as “soluble”.

Source: the DeepSol protein solubility set
